Test results published in PMC7261193, “The ancillary N-terminal region of the yeast AP-1 transcription factor Yap8 contributes to its DNA binding specificity”.
Where a chain is given by its changes, count along the chain named.

Assays:
[1] = target: GST-Yap8-7aa A23T;L26N;S29A;N31R;K35E;L37E;E39R (Saccharomyces cerevisiae) (UniProt Q06596); assay: fluorescence anisotropy; conditions: FA: 10 mM Tris-HCl pH 8, 50 mM NaCl, 0.5% NP-40, 1 mM DTT, 5% glycerol, 1 nM DNA, 25C (half volume protein elution buffer). Biotin EMSA: LightShift 1x buffer …
[2] = target: GST-Yap8-8aa N20Q;A23T;L26N;S29A;N31R;K35E;L37E;E39R (Saccharomyces cerevisiae) (UniProt Q06596); assay: fluorescence anisotropy; conditions: FA: 10 mM Tris-HCl pH 8, 50 mM NaCl, 0.5% NP-40, 1 mM DTT, 5% glycerol, 1 nM DNA, 25C (half volume protein elution buffer). Biotin EMSA: LightShift 1x buffer …
GST-Yap8 WT [3] = target: T1, GST-Yap8 WT (Saccharomyces cerevisiae, UniProt Q06596 1-294); assay: EMSA; FA: 10 mM Tris-HCl pH 8, 50 mM NaCl, 0.5% NP-40, 1 mM DTT, 5% glycerol, 1 nM DNA, 25C (half volume protein elution buffer). Biotin EMSA: LightShift 1x buffer, 50 ng poly(dI-dC), 2.5% glycerol, 0.05% NP-40, 5 mM MgCl2, 20 fmol probe, RT 20 min. 32P EMSA: 10 mM Tris-HCl pH 8.0, 50 mM NaCl, 1 mM DTT, 0.05% NP-40, 100 ng poly(dI-dC), 6% glycerol, 4C 30 min; conditions: protein: recombinant; tags: GST (N-term); chain copies: 2; label: 32P 5'; blunt
T1 sequence: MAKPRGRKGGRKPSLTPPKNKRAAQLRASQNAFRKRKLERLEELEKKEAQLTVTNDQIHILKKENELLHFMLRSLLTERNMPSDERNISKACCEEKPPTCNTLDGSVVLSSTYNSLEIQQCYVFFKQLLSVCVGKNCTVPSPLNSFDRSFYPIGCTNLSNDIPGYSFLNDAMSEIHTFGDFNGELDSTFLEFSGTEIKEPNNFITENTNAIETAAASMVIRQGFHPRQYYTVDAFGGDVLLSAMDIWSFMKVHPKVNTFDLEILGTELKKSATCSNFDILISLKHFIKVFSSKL

GST-Yap8-N20Q = target: T2, GST-Yap8-N20Q (Saccharomyces cerevisiae, UniProt Q06596 1-294, N20Q); assay: as above; conditions: protein: recombinant; tags: GST (N-term); chain copies: 2; label: 32P 5'; blunt
T2 sequence: T1 sequence with N20Q

GST-Yap8-N20A = target: T3, GST-Yap8-N20A (Saccharomyces cerevisiae, UniProt Q06596 1-294, N20A); assay: as above; conditions: protein: recombinant; tags: GST (N-term); chain copies: 2; label: 32P 5'; blunt
T3 sequence: T1 sequence with N20A

GST-Yap8 WT [4] = target: T1, GST-Yap8 WT; assay: fluorescence anisotropy; series c; FA: 10 mM Tris-HCl pH 8, 50 mM NaCl, 0.5% NP-40, 1 mM DTT, 5% glycerol, 1 nM DNA, 25C (half volume protein elution buffer). Biotin EMSA: LightShift 1x buffer, 50 ng poly(dI-dC), 2.5% glycerol, 0.05% NP-40, 5 mM MgCl2, 20 fmol probe, RT 20 min. 32P EMSA: 10 mM Tris-HCl pH 8.0, 50 mM NaCl, 1 mM DTT, 0.05% NP-40, 100 ng poly(dI-dC), 6% glycerol, 4C 30 min; conditions: protein: recombinant; tags: GST (N-term); chain copies: 2; label: 5' FAM; blunt
GST-Yap8-G10A = target: T4, GST-Yap8-G10A (Saccharomyces cerevisiae, UniProt Q06596 1-294, G10A); assay: EMSA; FA: 10 mM Tris-HCl pH 8, 50 mM NaCl, 0.5% NP-40, 1 mM DTT, 5% glycerol, 1 nM DNA, 25C (half volume protein elution buffer). Biotin EMSA: LightShift 1x buffer, 50 ng poly(dI-dC), 2.5% glycerol, 0.05% NP-40, 5 mM MgCl2, 20 fmol probe, RT 20 min. 32P EMSA: 10 mM Tris-HCl pH 8.0, 50 mM NaCl, 1 mM DTT, 0.05% NP-40, 100 ng poly(dI-dC), 6% glycerol, 4C 30 min; conditions: protein: recombinant; tags: GST (N-term); chain copies: 2; blunt
T4 sequence: T1 sequence with G10A

GST-Yap8-R11K = target: T5, GST-Yap8-R11K (Saccharomyces cerevisiae, UniProt Q06596 1-294, R11K); assay: as above; conditions: protein: recombinant; tags: GST (N-term); chain copies: 2; blunt
T5 sequence: T1 sequence with R11K

GST-Yap8-4aa = target: T6, GST-Yap8-4aa (Saccharomyces cerevisiae, UniProt Q06596 1-294, A23T;L26N;S29A;N31R); assay: as above; conditions: protein: recombinant, tags: GST (N-term), chain copies: 2, blunt
T6 sequence: T1 sequence with A23T, L26N, S29A, N31R

GST-Yap8-R7K,R11K = target: T7, GST-Yap8-R7K,R11K (Saccharomyces cerevisiae, UniProt Q06596 1-294, R7K;R11K); assay: as above; conditions: protein: recombinant; tags: GST (N-term); chain copies: 2; blunt
T7 sequence: T1 sequence with R7K, R11K

Molecule: CTTTTTGTTTGATTAATAATCAACTTTAGCG (double strand) [ACR3-WT (FAM)]
- Kd [1]: 9.3 nM
- Kd [2]: 15.1 nM

B1: GSH1short (dsDNA)
DNA 1: TTCTGCCCAACGACGGCTGCCATTAGTCAGCATGGCGCGCACGTGACTACA
DNA 2: TGTAGTCACGTGCGCGCCATGCTGACTAATGGCAGCCGTCGTTGGGCAGAA
- binding result (GST-Yap8 WT [3]): no binding
- binding result (GST-Yap8-N20Q): no binding
- binding result (GST-Yap8-N20A): no binding

B2: ACR3-M3 (FAM) (dsDNA)
DNA 1: CTTTGCGGCTGATTAATAATCAACCGGAGCG
DNA 2: CGCTCCGGTTGATTATTAATCAGCCGCAAAG
- Kd (GST-Yap8 WT [4]): 19.4 ± 4.1 nM

B3: ACR3short (WT) (dsDNA)
DNA 1: TCTTAATTATCTTTTTGTTTGATTAATAATCAACTTTAGCGGCAACGCTCC
DNA 2: GGAGCGTTGCCGCTAAAGTTGATTATTAATCAAACAAAAAGATAATTAAGA
- binding result (GST-Yap8-G10A): no binding
- binding result (GST-Yap8-R11K): no binding
- binding result (GST-Yap8-4aa): binds
- binding result (GST-Yap8-R7K,R11K): no binding

B4: TRX2short (dsDNA)
DNA 1: ATTGTTTATACTCTTAGTAAAGGATGCTCCCTACAAGGTGGCTCTTTTCTTACTAAGCGCGTTCAGTTTC
DNA 2: GAAACTGAACGCGCTTAGTAAGAAAAGAGCCACCTTGTAGGGAGCATCCTTTACTAAGAGTATAAACAAT
- binding result (GST-Yap8-4aa; label: 32P 5'): no binding
